The target in the assay is T1, […] pentapeptide of the McpB (Aer2) chemoreceptor (Pseudomonas aeruginosa PAO1).
T1 construct: also called GWEEF; McpB pentapeptide; source: synthetic peptide (Biomedal S.L., Seville, Spain)
The assay is described as follows: ITC. The settings on record: both partners purified.

B1: P. aeruginosa PAO1 CheB2 (PA0173) (enzyme)
chain: MPISVLVVDDSALIRSLLKEIIQADPELRLVGCAPDAFVARDLIKQHAPDVISLDVEMPRMDGLTFLDKLMKARPTPVLMISSLTERGSEATLRALELGAVDFIAKPRLGIAEGMQAYAEEIRAKLKTVARARLRRRAADAPAPPESAAPLLSTEKIIALGASTGGTEALKEVLLGLPAHSPGVVITQHMPPGFTRSFAERLDRLTRLSVSEARDGDRILPGHALVAPGDHHMEVQRSGANYVVRLNRQAQVNGHRPAVDVMFESLARCAGRNLLAGLLTGMGKDGARGLLAIRQAGGYTLAQDEATCVVYGMPREAVELGAAEDVLPLERIAAALLQQAARRGSGNRL
notes: source: E. coli BL21(DE3), purified (HisTrap HP)
As usually defined, the Kd is the concentration at which binding is half-saturated. Low readings indicate tighter binding, high ones weaker binding. For B1, the dissociation constant Kd stood at 93 ± 15 µM.

For the origin of these results see PMC7698151, “Evidence for Pentapeptide-Dependent and Independent CheB Methylesterases” (International Journal of Molecular Sciences, 2020).
